Changes are numbered by the printed parent chain. In names and notes the source's numbering stands. Marks after values point to notes of the source that are not given here.
Tests used:
[1] = test system: CN1CCC[C@H]1c1cccnc1; experiment: Nicotine demethylase assay, yeast microsomal membrane preparations incubated with [^14C]-nicotine, products resolved by thin layer chromatography; assay type: biochemical, Nicotiana tabacum; settings: other: substrate saturation curve across a wide range of [^14C]-nicotine concentrations; microsomes from yeast strain W(R) expressing CYP82E10 cDNA
Text: (§1) To determine whether CYP82E10 functions as a nicotine demethylase gene, its cDNA was cloned into the yeast expression vector pYeDP60 and transformed into yeast strain W(R). Strain W(R) is a yeast cell line that was engineered to overexpress the yeast NADPH-dependent P450 reductase, an enzyme that serves as the direct electron donor to P450s; this system greatly enhances the detection of foreign P450 enzyme activities that are expressed in yeast (Pompon et al., 1995). Nicotine demethylase assays were conducted by incubating yeast microsomal membrane preparations with [^14C]-nicotine, and resolving the products by thin layer chromatography as described in Siminszky et al. (2005).

[2] = test system: CYP82E5 nicotine demethylase; experiment: Nicotine demethylase activity of CYP82E5 variants (method not described); assay type: biochemical, tobacco
[3] = test system: CYP82E4 nicotine demethylase
[4] = target: CYP82E4 nicotine demethylase (Nicotiana tabacum, UniProt Q38Q87, V376M)
Sequence of CYP82E4 nicotine demethylase (Nicotiana tabacum, UniProt Q38Q87, V376M) (Q38Q87 whole entry V376M): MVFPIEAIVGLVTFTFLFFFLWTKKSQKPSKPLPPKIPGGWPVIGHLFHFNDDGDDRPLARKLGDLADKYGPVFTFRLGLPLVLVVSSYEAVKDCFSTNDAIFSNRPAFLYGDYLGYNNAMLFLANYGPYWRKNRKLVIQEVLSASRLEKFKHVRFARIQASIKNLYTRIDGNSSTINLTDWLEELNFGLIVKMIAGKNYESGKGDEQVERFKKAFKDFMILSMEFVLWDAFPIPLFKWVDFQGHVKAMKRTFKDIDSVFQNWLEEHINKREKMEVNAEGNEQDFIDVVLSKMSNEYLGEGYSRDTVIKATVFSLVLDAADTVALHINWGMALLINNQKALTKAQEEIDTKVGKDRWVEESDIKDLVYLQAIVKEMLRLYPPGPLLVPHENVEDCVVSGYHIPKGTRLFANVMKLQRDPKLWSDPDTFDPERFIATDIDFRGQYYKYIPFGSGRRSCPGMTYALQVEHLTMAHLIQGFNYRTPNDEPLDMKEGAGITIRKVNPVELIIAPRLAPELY

[5] = test system: CYP82E4v2 nicotine demethylase; assay type: biochemical, tobacco; settings: counts per minute of [14C]-nornicotine/mg microsomal protein; ± SD of two technical replications
Text: as §1
The thin layer chromatographic data for the in vitro yeast expression assays corresponding to the plant 1041 mutation are shown in FIG. 3. This particular mutation was selected for more extensive investigation. To provide additional confirmation that the Pro to Ser substitution at amino acid position 381 that defines the plant 1041 mutation is incompatible with nicotine demethylation function, this same mutation was introduced into a CYP82E4v2 cDNA that had been similarly cloned into the pYeDP60 vector. […] Whether introduced into the CYP82E10 or CYP82E4v2 enzymes, a Ser substitution for Pro at position 381 leads to the complete ablation of nicotine demethylase activity in this assay.

[6] = test system: CYP82E10 nicotine demethylase; experiment: Nicotine demethylase assay, yeast microsomal membranes with [14C]-nicotine, CYP82E10 and variants; assay type: biochemical, tobacco
Text: as §1
The nucleotide and amino acid residues mutated in these plants are also highlighted in FIG. 1. Although no truncation mutations were observed among these individuals, in several cases, mutations were identified that altered an amino acid residue within a highly conserved region of the enzyme. To determine the effects of a particular mutation on CYP82E10 enzyme activity, site-directed mutagenesis was used to introduce the specific mutations corresponding to seven of the nine mutations shown in Table 2 into the CYP82E10 cDNA within the pYeDP60 yeast expression vector. Microsomal preparations from yeast strains expressing each of the seven CYP82E10 variants were assayed in vitro for nicotine demethylase activity using both non-saturating (2.45 μM) and saturating (50 μM) concentrations of [^14C]-nicotine.

[7] = test system: CYP82E10 nicotine demethylase; assay type: cell-based, tobacco; settings: cultures shaken overnight with 55 μM [14C]-nicotine, methanol extract, TLC
Method: Nicotine demethylase activities of wild type and 1041 mutant CYP82E10-expressing yeast cells was also assayed in vivo.

[8] = test system: CYP82E10 nicotine demethylase; experiment: Nicotine demethylase assay, yeast microsomal membranes with [14C]-nicotine, CYP82E10 and variants; assay type: biochemical, tobacco; settings: at the 25 μM substrate level
[9] = counts per minute of [14C]-nornicotine/mg microsomal protein, ± SD of two technical replications

Molecule “Nicotiana tabacum CYP82E10 nicotine demethylase, wild type, SEQ ID NO:2 (Nicotiana tabacum)” has a Km [1] of 3.9 µM.

B1: CYP82E5 P449L: CYP82E5 variant with leucine for proline at position 449 (protein, listed as Nicotiana tabacum)
chain: MVSPVEAIVGLVTLTLLFYFLWPKKFQIPSKPLPPKIPGGWPVIGHLFYFDDDGDDRPLARKLGDLADKYGPVFTFRLGLPLVLVVSSYEAVKDCFSTNDAIFSNRPAFLYGEYLGYSNAMLFLTKYGPYWRKNRKLVIQEVLSASRLEKLKHVRFGKIQTSIKSLYTRIDGNSSTINLTDWLEELNFGLIVKMIAGKNYESGKGDEQVERFRKAFKDFIILSMEFVLWDAFPIPLFKWVDFQGHVKAMKRTFKDIDSVFQNWLEEHVKKREKMEVNAQGNEQDFIDVVLSKMSNEYLDEGYSRDTVIKATVFSLVLDAADTVALHMNWGMALLINNQHALKKAQEEIDKKVGKERWVEESDIKDLVYLQAIVKEVLRLYPPGPLLVPHENVEDCVVSGYHIPKGTRLFANVMKLQRDPKLWSNPDKFDPERFFADDIDYRGQHYEFILFGSGRRSCPGMTYALQAEHLTIAHLIQGFNYKTPNDEPLDMKEGAGLTIRKVNPVEVTITARLAPELY
modifications: CYP82E5 P449L
For B1, the “effect of mutation on nicotine demethylase activity, in words” value [2] was “inhibition of its nicotine demethylase activity”.

B2: CYP82E4 W329Stop: CYP82E4 variant with stop codon for tryptophan at position 329 (protein, listed as Nicotiana tabacum)
chain: MLSPIEAIVGLVTFTFLFFFLWTKKSQKPSKPLPPKIPGGWPVIGHLFHFNDDGDDRPLARKLGDLADKYGPVFTFRLGLPLVLVVSSYEAVKDCFSTNDAIFSNRPAFLYGDYLGYNNAMLFLANYGPYWRKNRKLVIQEVLSASRLEKFKHVRFARIQASIKNLYTRIDGNSSTINLTDWLEELNFGLIVKMIAGKNYESGKGDEQVERFKKAFKDFMILSMEFVLWDAFPIPLFKWVDFQGHVKAMKRTFKDIDSVFQNWLEEHINKREKMEVNAEGNEQDFIDVVLSKMSNEYLGEGYSRDTVIKATVFSLVLDAADTVALHIN
modifications: CYP82E4 W329Stop Variant
B2 was tested, and the “inhibition of nicotine demethylase activity (knocked out)” value (shortened to “inhibition”) [3] was 100%.

B3: CYP82E4 V376M: CYP82E4 variant with methionine for valine at position 376 (protein, listed as Nicotiana tabacum)
chain: MLSPIEAIVGLVTFTFLFFFLWTKKSQKPSKPLPPKIPGGWPVIGHLFHFNDDGDDRPLARKLGDLADKYGPVFTFRLGLPLVLVVSSYEAVKDCFSTNDAIFSNRPAFLYGDYLGYNNAMLFLANYGPYWRKNRKLVIQEVLSASRLEKFKHVRFARIQASIKNLYTRIDGNSSTINLTDWLEELNFGLIVKMIAGKNYESGKGDEQVERFKKAFKDFMILSMEFVLWDAFPIPLFKWVDFQGHVKAMKRTFKDIDSVFQNWLEEHINKREKMEVNAEGNEQDFIDVVLSKMSNEYLGEGYSRDTVIKATVFSLVLDAADTVALHINWGMALLINNQKALTKAQEEIDTKVGKDRWVEESDIKDLVYLQAIVKEMLRLYPPGPLLVPHENVEDCVVSGYHIPKGTRLFANVMKLQRDPKLWSDPDTFDPERFIATDIDFRGQYYKYIPFGSGRRSCPGMTYALQVEHLTMAHLIQGFNYRTPNDEPLDMKEGAGITIRKVNPVELIIAPRLAPELY
modifications: CYP82E4 V376M Variant
B3 was tested, and the “nicotine demethylase activity relative to the wild-type CYP82E4 polypeptide” value [4] was “about 50%”.

B4: CYP82E4 P458S: CYP82E4 variant with serine for proline at position 458 (protein, listed as Nicotiana tabacum)
chain: B3 chain with M376V, P458S
modifications: CYP82E4 P458S Variant
B4 was tested, and the “inhibition” value [3] was 100%.

B5: pYeDP60-CYPE4v2/1041: CYP82E4v2 enzyme possessing the 1041 mutation (Pro381Ser) (protein, listed as Nicotiana tabacum)
chain: B3 chain with M376V, P382S
modifications: CYP82E4 P382S Variant
In the case of B5, the “CPM nornicotine at 2.45 μM [14C]-nicotine substrate” value (from here on “CPM nornicotine at 2.45 μM”) [5] is reported as “Not detected”, the “CPM nornicotine at 50.0 μM [14C]-nicotine substrate” value (“CPM nornicotine at 50.0 μM” for short) [5] is reported as “Not detected” and the “inhibition” value [3] is reported as 100%.

B6: CYP82E4 K364N: CYP82E4 variant with asparagine for lysine at position 364 (protein, listed as Nicotiana tabacum)
chain: B3 chain with K364N, M376V
modifications: CYP82E4 K364N Variant
With B6 the “inhibition” value [3] was 100%.

B7: pYeDP60-CYPE4v2: wild type senescence-induced tobacco nicotine demethylase CYP82E4v2 expressed in yeast (protein, listed as Nicotiana tabacum)
chain: B3 chain with M376V, G459R
With B7 the “CPM nornicotine at 2.45 μM” value [5] was 1,813 ± 623^b CPM and the “CPM nornicotine at 50.0 μM” value [5] was 5,383 ± 505 CPM.

B8: SEQ ID NO:33: CYP82E5 variant with stop codon for tryptophan at position 422 (protein, listed as Nicotiana tabacum)
chain: MVSPVEAIVGLVTLTLLFYFLWPKKFQIPSKPLPPKIPGGWPVIGHLFYFDDDGDDRPLARKLGDLADKYGPVFTFRLGLPLVLVVSSYEAVKDCFSTNDAIFSNRPAFLYGEYLGYSNAMLFLTKYGPYWRKNRKLVIQEVLSASRLEKLKHVRFGKIQTSIKSLYTRIDGNSSTINLTDWLEELNFGLIVKMIAGKNYESGKGDEQVERFRKAFKDFIILSMEFVLWDAFPIPLFKWVDFQGHVKAMKRTFKDIDSVFQNWLEEHVKKREKMEVNAQGNEQDFIDVVLSKMSNEYLDEGYSRDTVIKATVFSLVLDAADTVALHMNWGMALLINNQHALKKAQEEIDKKVGKERWVEESDIKDLVYLQAIVKEVLRLYPPGPLLVPHENVEDCVVSGYHIPKGTRLFANVMKLQRDPKL
modifications: CYP82E5 W422Stop Variant
B8 was tested, and the “inhibition” value [2] was 100%.

B9: CYP82E10: wild type root-specific tobacco nicotine demethylase (cytochrome P450) expressed in yeast (protein, listed as Nicotiana tabacum)
chain: MVSPVEAIVGLVTLTLLFYFIRTKKSQKPSKPLPPKIPGGWPVIGHLFYFDDDSDDRPLARKLGDLADKYGPVFTFRLGLPLVLVVSSYEAIKDCFSTNDAIFSNRPAFLYGEYLGYNNAMLFLTKYGPYWRKNRKLVIQEVLCASRLEKLKHVRFGEIQTSIKNLYTRIDGNSSTINLTDWLEELNFGLIVKMIAGKNYESGKGDEQVERFRKAFKDFIILSMEFVLWDAFPIPLFKWVDFQGHVKAMKRTFKDIDSVFQNWLEEHVKKKEKMEVNAEGNEQDFIDVVLSKMSNEYLDEGYSRDTVIKATVFSLVLDAADTVALHMNWGMALLINNQHALKKAQEEIDKKVGKDRWVEESDIKDLVYLQTIVKEVLRLYPPGPLLVPHENVEDCVVSGYHIPKGTRLFANVMKLQRDPKLWSNPDKFDPERFFAADIDFRGQHYEFIPFGSGRRSCPGMTYAMQVEHLTIAHLIQGFNYKTPNDEPLDMKEGAGLTIRKVNPIEVVITPRLTPELY
B9 was tested, and the “CPM nornicotine at 2.45 μM” value [6, 9] was 2,296 ± 99 ^ CPM, the “CPM nornicotine at 50.0 μM” value [6, 9] was 15,253 ± 465 CPM and the “nicotine demethylase (enzyme) activity, result in words” value ([6]; yeast microsomes, [14C]-nicotine) was “very robust nicotine demethylase activity”. For the same molecule, the “nornicotine detected in extracts of yeast” value [7] was “could be detected” and the “rate of [14C]-nornicotine synthesis relative to preparations containing CYP82E4v2” value [8] was “nearly three times greater”.
